According to patent publication US20260248877A1 (Universite de Rennes, priority 2021, published 2026):
Where “and” joins values, the source holds several entries; their conditions need not be identical. Identical values can stand only once. Entries after “also recorded” stand apart in the source; their conditions may differ.

Tests used:
[1] = system: cells of the neuroblastoma line SH-SY5Y; assay: Growth of SH-SY5Y neuroblastoma cells (images); type: cell-based; conditions: 100 μM, 24 hours, 1×DMEM medium, 8% serum
Description: The effects of three hexapeptides classified as “therapeutic” (1tp, 4tp, 6tp) and of two peptides classified as “amyloid” (7tp and 1p) on the growth of cells of the neuroblastoma line SH-SY5Y were studied after 24 hours of treatment in the presence of a hexapeptide at a concentration of 100 μM in 1×DMEM medium, 8% serum. The results obtained are presented on FIG. 10(A).

[2] = molecular target: T1, PHF6 peptide (VQIVYK, 1p) (Homo sapiens, UniProt P10636); assay: Effects of the derived peptides on VQIVYK polymerization by spectrofluorimetry (ThT kinetics); type: biochemical; conditions: [1p]=155 μM, [selected peptide]=310 μM; for fluorescence intensity (plateau / at 100 minutes) of 1p in the presence of peptide, % of 1p alone / maximum polymerization rate of 1p in the presence of peptide, % of 1p alone: [ThT]=32 μM; for inhibitory effect on 1p (PHF6) polymerization (in words): thresholds 50% rate, 100% fluorescence intensity
T1 construct: The polymerization of VQIVYK was initiated by adding ¼ of the volume of fibrillation buffer 5×

[3] = Determination of the amyloidogenic character of the peptides by Thioflavin T fluorescence; type: physicochemical; conditions: for amyloidogenic character (in words): ThT fluorescence, Garnier-Delamarche representation; for % fluorescence: 800 μM peptide, ThT fluorescence normalized to 1p = 100% (16p and 9tp: 288 μM per FIG. 3 legend)
Description: (§1) After thawing, a pre-dilution in milli Q H2O filtered through 0.2 μm was carried out in order to obtain a solution at a concentration close to the working concentration, greater than 1.25 times. This stock solution was left to incubate for 1 hour in a water bath at 25° C., and was then assayed spectrophotometrically and adjusted to the final working concentration of 1.25 times. The polymerization was initiated by adding ¼ of the volume of 5× fibrillation buffer (50 mM MOPS, 750 mM NaCl, pH=7.2) for a final concentration of 1× fibrillation buffer (10 mM MOPS, 150 mM NaCl, PH=7.2). The samples were left to incubate for 1.5-2 hours at 25° C. in a water bath. The study of the polymerization by fluorimetry was carried out under the same conditions, except that the 5× polymerization buffer was supplemented with Thioflavin T (ThT) at 100 μM in order to be able to observe the fluorescence. • (a) Determination of the Aggregative Character of the Peptides. Once polymerized, the samples were ultracentrifuged at 100,000 g for 5 minutes at 25° C. (Beckman TL100, rotor TL-A100). The supernatants of each sample were then collected. An assay at 280 nm in triplicate of each supernatant was then carried out in the presence of 1% SDS. The concentration of the supernatant was determined using the Beer-Lambert law A=ε×1×C; ε (peptides)=1450 M^−1cm^−1. The concentration of sedimentable species in the pellet was then deduced by the difference: “total concentration of the sample—concentration of free peptide present in the supernatant”. • (b) Determination of the Amyloidogenic Character of the Peptides. Once the peptides have polymerized as previously indicated, 40 μL of peptides polymerized at a concentration of 400 μM and 800 μM were diluted in 360 μL of Thioflavin T (10 μM ThT, 1×MOPS) in a thermostatically controlled tank of 0.2×1 cm, to a final volume of 400 μL. The fluorescence of the sample was then measured immediately after dilution by recording a fluorescence spectrum (470 nm to 600 nm) at an excitation wavelength of 450 nm (Perkin Elmer LS 55, PM 750, slit10).
(§2) After prediction of their amyloidogenic character by bioinformatics, all the peptides were studied using biochemical techniques, namely sedimentation and fluorescence/ThT. The biochemical experiments were carried out at two peptide concentrations: 400 μM and 800 μM. Only the results obtained at 800 μM are presented. At this concentration, in sedimentation, the amount of sedimentable peptide after polymerization was measured and expressed as a percentage as a function of the total concentration. This value corresponds to the aggregative character of the peptides. On the other hand, the fluorescence test was used to determine their amyloidogenic character, the fluorescence value given corresponds to a normalization with respect to 1p, considering that its fluorescence is 100% (Table 4).

[4] = Determination of the aggregative character of the peptides by sedimentation; type: physicochemical; conditions: for aggregative character (in words): sedimentation, Garnier-Delamarche representation; for % sedimentation: 800 μM peptide, sedimentable peptide after polymerization as percentage of total concentration (16p and 9tp: 288 μM per FIG. 3 legend)
Description: as §1, §2

[5] = Solubility of peptides in aqueous medium; type: physicochemical; conditions: could not be tested at 800 μM
Description: The PHIF6 peptide (Ac-VQIVYK-NH2) as well as the derived hexapeptides were produced by Proteogenix® in an N-acetylated and C-amidated form and supplied in a lyophilized form. They are acetylated and amidated in order to better mimic the original protein. They were resuspended in milli Q water and filtered through 0.2 μm to obtain a concentration close to 5 mg/mL. After being vortexed for 15 minutes, the peptide solution was sonicated for 15 minutes at 35° C. in a sonicator water bath (Advantage-Lab AL04-04) then ultracentrifuged (Beckman TL100) at 100,000 g for 10 minutes at 20° C. The pellet containing the residual aggregates was discarded. The concentration of the supernatant was determined by measuring UV absorption at 280 nm using a molar extinction coefficient of 1450 M^−1cm^−1 in 1% SDS.

Substance	amyloidogenic character (in words) [3]	aggregative character (in words) [4]	% fluorescence [3]	% sedimentation [4] [%]	other results
Ac-IQVVYK-NH2 [7tp, IQVVYK]					effect on cell growth (number and appearance of cells) [1]: the number of cells seemed to strongly decrease
Ac-VKIQYV-NH2 [4tp, VKIQYV]					effect on cell growth (number and appearance of cells) [1]: did not seem to have any effect
Ac-VKIVYQ-NH2 [1tp, VKIVYQ]					effect on cell growth (number and appearance of cells) [1]: did not seem to have any effect; fluorescence intensity (plateau / at 100 minutes) of 1p in the presence of peptide, % of 1p alone [2]: 23.5%; maximum polymerization rate of 1p in the presence of peptide, % of 1p alone [2]: 12%
Ac-VQIVYK-NH2 [1p, Ac-VQIVYK-NH2, reference compound]	strong amyloidogenic	self-aggregative			effect on cell growth (number and appearance of cells) [1]: the number of cells seemed to strongly decrease
Ac-YQVKIV-NH2 [16p, YQVKIV]					solubility in aqueous medium [5]: low solubility
Ac-YQVVIK-NH2 [9tp, YQVVIK]					solubility in aqueous medium [5]: low solubility
IKQVYV (Ac-IKQVYV-NH2) [5p]	weakly amyloidogenic	weakly aggregative	1.1%	5	category of polymerization kinetics of 1p in the presence of peptide [2]: generally follow the kinetics of 1p alone; inhibitory effect on 1p (PHF6) polymerization (in words) [2]: marked inhibitory effect; also recorded: with a weak inhibitory effect
IQYVVK (Ac-IQYVVK-NH2) [8tp]			17.5%	78	
IYVQKV (Ac-IYVQKV-NH2) [9p]	weakly amyloidogenic	weakly aggregative	2.1%	1	category of polymerization kinetics of 1p in the presence of peptide [2]: generally follow the kinetics of 1p alone; inhibitory effect on 1p (PHF6) polymerization (in words) [2]: without any inhibitory effect
KQIVYV (Ac-KQIVYV-NH2) [20p]			1.3%	75	
KVQIVY (Ac-KVQIVY-NH2) [10p]			3.2%	63	
KVQYVI (Ac-KVQYVI-NH2) [14p]	weakly amyloidogenic	weakly aggregative	4.4%	1	category of polymerization kinetics of 1p in the presence of peptide [2]: generally follow the kinetics of 1p alone; inhibitory effect on 1p (PHF6) polymerization (in words) [2]: without any inhibitory effect
KYIQVV (Ac-KYIQVV-NH2) [2p]			2.8%	67	
KYVIQV (Ac-KYVIQV-NH2) [15p]			3.9%	71	
QKVVYI (Ac-QKVVYI-NH2) [18p]			6.8%	51	
QKVYIV (Ac-QKVYIV-NH2) [19p]	vice versa	vice versa	0.8%	76	

Substance	amyloidogenic character (in words) [3]	aggregative character (in words) [4]	% fluorescence [3]	% sedimentation [4] [%]	other results
QKYIVV (Ac-QKYIVV-NH2) [8p]			1.9%	0	category of polymerization kinetics of 1p in the presence of peptide [2]: very high rate and intensity of fluorescence; inhibitory effect on 1p (PHF6) polymerization (in words) [2]: without any inhibitory effect
QVIKYV (Ac-QVIKYV-NH2) [23p]	weakly amyloidogenic	weakly aggregative	0.8%	5	category of polymerization kinetics of 1p in the presence of peptide [2]: very high rate and intensity of fluorescence; fluorescence intensity (plateau / at 100 minutes) of 1p in the presence of peptide, % of 1p alone [2]: 161.7%; maximum polymerization rate of 1p in the presence of peptide, % of 1p alone [2]: 65%; inhibitory effect on 1p (PHF6) polymerization (in words) [2]: non-inhibitory peptide; also recorded: without any inhibitory effect
VKVIYQ (Ac-VKVIYQ-NH2) [7p]			1.3%	86	
VKVYIQ (Ac-VKVYIQ-NH2) [11p]			25%	6	
VKYQVI (Ac-VKYQVI-NH2) [3p]	very poorly amyloidogenic	more aggregative than the 10 selected hexapeptides	0.2%	18	
VQIKYV (Ac-VQIKYV-NH2) [0tp]			10.7%	0	
VQKIYV (Ac-VQKIYV-NH2) [4p]	weakly amyloidogenic	weakly aggregative	0.8%	1	category of polymerization kinetics of 1p in the presence of peptide [2]: generally follow the kinetics of 1p alone; fluorescence intensity (plateau / at 100 minutes) of 1p in the presence of peptide, % of 1p alone [2]: 80%; maximum polymerization rate of 1p in the presence of peptide, % of 1p alone [2]: 50%; inhibitory effect on 1p (PHF6) polymerization (in words) [2]: inhibits the polymerization of 1p; also recorded: marked inhibitory effect; also recorded: with a weak inhibitory effect
VQVIYK (Ac-VQVIYK-NH2) [12p]			82% and 81.6%	14	
VQVKYI (Ac-VQVKYI-NH2) [21p]	amyloidogenic	poorly aggregative	19.9%	33	
VQVYKI (Ac-VQVYKI-NH2) [22p]			3%	34	
VQYVIK (Ac-VQYVIK-NH2) [5tp]	amyloidogenic	aggregative	71.7%	26	
VVIKYQ (Ac-VVIKYQ-NH2) [3tp]			0.9%	48	
VVIQYK (Ac-VVIQYK-NH2) [2tp]			2.9%	58	
VVQKYI (Ac-VVQKYI-NH2) [6p]	weakly amyloidogenic; also recorded: very poorly amyloidogenic	weakly aggregative; also recorded: more aggregative than the 10 selected hexapeptides	0.2%	14	
YIVVQK (Ac-YIVVQK-NH2) [13p]	weakly amyloidogenic	weakly aggregative	2.7%	0	category of polymerization kinetics of 1p in the presence of peptide [2]: generally follow the kinetics of 1p alone; inhibitory effect on 1p (PHF6) polymerization (in words) [2]: without any inhibitory effect
YQVIVK (Ac-YQVIVK-NH2) [17p]			2.3%	95	
